Data taken from US20120294879A1, “CONSENSUS SEQUENCE FOR INFLUENZA A VIRUS” (priority 2009, published 2012).

Biological target: HLA-B7 (B*0702), chimeric heavy chain with HLA-B*0702 α1 and α2 domains and H-2Kd murine α3 domain, (human; mouse), B*07:0
Assay: cell-based or functional assay

Substance | IFN-γ ELISpot at 10 µg/ml peptide, splenocytes of immunized HLA transgenic mice | lowest concentration of peptide giving positive ELISpot response
PB1 328-344 peptide of influenza virus A/New York/348/2003 (H1N1) | 60 | 10 µg/mL
PB2 500-516 peptide of influenza virus A/New York/348/2003 (H1N1) | 184 | 0.1 µg/mL

Biological target: HLA-DR2 (DRB1*1501), chimeric DRA1*0101:I-Eα and DRB1*1501:I-Eβ, as expressed in HLA-DR2 transgenic mice (human; mouse) (UniProt Q8BHN5)
Assay: cell-based or functional assay

Sequence of UniProt Q8BHN5 (Q8BHN5 whole entry, change not shown): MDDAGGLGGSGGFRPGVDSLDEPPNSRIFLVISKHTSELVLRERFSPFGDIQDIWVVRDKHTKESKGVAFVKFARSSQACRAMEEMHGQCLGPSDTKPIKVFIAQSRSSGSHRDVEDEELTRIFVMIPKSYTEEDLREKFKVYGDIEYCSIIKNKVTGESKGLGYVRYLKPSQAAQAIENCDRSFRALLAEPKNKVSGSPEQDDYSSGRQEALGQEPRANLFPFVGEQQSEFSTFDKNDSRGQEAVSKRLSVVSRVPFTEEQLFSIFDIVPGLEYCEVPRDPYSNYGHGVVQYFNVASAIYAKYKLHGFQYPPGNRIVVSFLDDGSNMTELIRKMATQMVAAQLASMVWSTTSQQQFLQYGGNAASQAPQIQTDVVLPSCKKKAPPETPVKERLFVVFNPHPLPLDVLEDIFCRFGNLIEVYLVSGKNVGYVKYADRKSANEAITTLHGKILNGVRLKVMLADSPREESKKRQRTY

Substance | IFN-γ ELISpot at 10 µg/ml peptide, splenocytes of immunized HLA transgenic mice | lowest concentration of peptide giving positive ELISpot response
M1 169-185 peptide of influenza virus A/New York/348/2003 (H1N1) | 56 | 0.1 µg/mL
NP 133-149 peptide of influenza virus A/New York/348/2003 (H1N1) | 238 | 0.1 µg/mL
NP 402-418 peptide of influenza virus A/New York/348/2003 (H1N1) | 207 | 0.1 µg/mL
NP 408-424 peptide of influenza virus A/New York/348/2003 (H1N1) | 110 | 1 µg/mL
PB1 352-368 peptide of influenza virus A/New York/348/2003 (H1N1) | 52 | 1 µg/mL
PB1 358-374 peptide of influenza virus A/New York/348/2003 (H1N1) | 84 | 0.1 µg/mL
PB1 465-481 peptide of influenza virus A/New York/348/2003 (H1N1) | 231 | 1 µg/mL
PB1 519-535 peptide of influenza virus A/New York/348/2003 (H1N1) | 75 | 0.1 µg/mL
PB1 525-541 peptide of influenza virus A/New York/348/2003 (H1N1) | 159 | 0.1 µg/mL
PB1 554-570 peptide of influenza virus A/New York/348/2003 (H1N1) | 109 | 1 µg/mL
PB1 560-576 peptide of influenza virus A/New York/348/2003 (H1N1) | 194 | 0.1 µg/mL
PB2 524-540 peptide of influenza virus A/New York/348/2003 (H1N1) | 151 | 0.1 µg/mL
PB2 548-564 peptide of influenza virus A/New York/348/2003 (H1N1) | 96 | –
PB2 630-646 peptide of influenza virus A/New York/348/2003 (H1N1) | 104 | 0.1 µg/mL
